Legend:
[1] = target: wild type huBUB3 (plasmid p291-2)
[2] = target: PHAS-I (Strategene)
Chain of PHAS-I (Strategene) (Q60876 2-117): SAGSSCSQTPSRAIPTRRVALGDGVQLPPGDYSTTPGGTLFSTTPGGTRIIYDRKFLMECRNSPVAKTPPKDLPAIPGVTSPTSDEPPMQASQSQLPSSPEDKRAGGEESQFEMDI

Chain of wild type huBUB3 (plasmid p291-2) (chain, as listed by the source): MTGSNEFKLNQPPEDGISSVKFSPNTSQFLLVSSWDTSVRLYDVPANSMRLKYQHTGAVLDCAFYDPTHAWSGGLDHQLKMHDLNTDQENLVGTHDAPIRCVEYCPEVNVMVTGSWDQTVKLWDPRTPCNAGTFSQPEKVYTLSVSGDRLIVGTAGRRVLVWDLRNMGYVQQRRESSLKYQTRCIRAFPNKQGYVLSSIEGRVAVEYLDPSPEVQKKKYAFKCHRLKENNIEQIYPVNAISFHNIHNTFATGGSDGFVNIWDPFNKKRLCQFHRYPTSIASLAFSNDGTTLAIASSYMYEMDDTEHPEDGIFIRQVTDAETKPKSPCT

B1: full-length HA-epitope tagged huBUB1 (plasmid p396-1) (protein)
chain: GGGGGGMDTPENVLQMLEAHMQSYKGNDPLGEWERYIQWVEENFPENKEYLITLLEHLMKEFLDKKKYHNDPRFISYCLKFAEYNSDLHQFFEFLYNHGIGTLSSPLYIAWAGHLEAQGELQHASAVLQRGIQNQAEPREFLQQQYRLFQTRLTETHLPAQARTSEPLHNVQVLNQMITSKSNPGNNMACISKNQGSELSGVISSACDKESNMERRVITISKSEYSVHSSLASKVDVEQVVMYCKEKLIRGESEFSFEELRAQKYNQRRKHEQWVNEDRHYMKRKEANAFEEQLLKQKMDELHKKLHQVVETSHEDLPASQERSEVNPARMGPSVGSQQELRAPCLPVTYQQTPVNMEKNPREAPPVVPPLANAISAALVSPATSQSIAPPVPLKAQTVTDSMFAVASKDAGCVNKSTHEFKPQSGAEIKEGCETHKVANTSSFHTTPNTSLGMVQATPSKVQPSPTVHTKEALGFIMNMFQAPTLPDISDDKDEWQSLDQNEDAFEAQFQKNVRSSGAWGVNKIISSLSSAFHVFEDGNKENYGLPQPKNKPTGARTFGERSVSRLPSKPKEEVPHAEEFLDDSTVWGIRCNKTLAPSPKSPGDFTSAAQLASTPFHKLPVESVHILEDKENVVAKQCTQATLDSCEENMVVPSRDGKFSPIQEKSPKQALSSHMYSASLLRLSQPAAGGVLTCEAELGVEACRLTDTDAAIAEDPPDAIAGLQAEWMQMSSLGTVDAPNFIVGNPWDDKLIFKLLSGLSKPVSSYPNTFEWQCKLPAIKPKTEFQLGSKLVYVHHLLGEGAFAQVYEATQGDLNDAKNKQKFVLKVQKPANPWEFYIGTQLMERLKPSMQHMFMKFYSAHLFQNGSVLVGELYSYGTLLNAINLYKNTPEKVMPQGLVISFAMRMLYMIEQVHDCEIIHGDIKPDNFILGNGFLEQDDEDDLSAGLALIDLGQSIDMKLFPKGTIFTAKCETSGFQCVEMLSNKPWNYQIDYFGVAATVYCMLFGTYMKVKNEGGECKPEGLFRRLPHLDMWNEFFHVMLNIPDCHHLPSLDLLRQKLKKVFQQHYTNKIRALRNRLIVLLLECKRSRK
autophosphorylation of HA-huBUB1 [1]: Co-translation of huBUB3 may stimulate this autophosphorylation activity.

B2: wild-type huBUB1 (full-length, plasmid p385-1) (protein)
chain: MDTPENVLQMLEAHMQSYKGNDPLGEWERYIQWVEENFPENKEYLITLLEHLMKEFLDKKKYHNDPRFISYCLKFAEYNSDLHQFFEFLYNHGIGTLSSPLYIAWAGHLEAQGELQHASAVLQRGIQNQAEPREFLQQQYRLFQTRLTETHLPAQARTSEPLHNVQVLNQMITSKSNPGNNMACISKNQGSELSGVISSACDKESNMERRVITISKSEYSVHSSLASKVDVEQVVMYCKEKLIRGESEFSFEELRAQKYNQRRKHEQWVNEDRHYMKRKEANAFEEQLLKQKMDELHKKLHQVVETSHEDLPASQERSEVNPARMGPSVGSQQELRAPCLPVTYQQTPVNMEKNPREAPPVVPPLANAISAALVSPATSQSIAPPVPLKAQTVTDSMFAVASKDAGCVNKSTHEFKPQSGAEIKEGCETHKVANTSSFHTTPNTSLGMVQATPSKVQPSPTVHTKEALGFIMNMFQAPTLPDISDDKDEWQSLDQNEDAFEAQFQKNVRSSGAWGVNKIISSLSSAFHVFEDGNKENYGLPQPKNKPTGARTFGERSVSRLPSKPKEEVPHAEEFLDDSTVWGIRCNKTLAPSPKSPGDFTSAAQLASTPFHKLPVESVHILEDKENVVAKQCTQATLDSCEENMVVPSRDGKFSPIQEKSPKQALSSHMYSASLLRLSQPAAGGVLTCEAELGVEACRLTDTDAAIAEDPPDAIAGLQAEWMQMSSLGTVDAPNFIVGNPWDDKLIFKLLSGLSKPVSSYPNTFEWQCKLPAIKPKTEFQLGSKLVYVHHLLGEGAFAQVYEATQGDLNDAKNKQKFVLKVQKPANPWEFYIGTQLMERLKPSMQHMFMKFYSAHLFQNGSVLVGELYSYGTLLNAINLYKNTPEKVMPQGLVISFAMRMLYMIEQVHDCEIIHGDIKPDNFILGNGFLEQDDEDDLSAGLALIDLGQSIDMKLFPKGTIFTAKCETSGFQCVEMLSNKPWNYQIDYFGVAATVYCMLFGTYMKVKNEGGECKPEGLFRRLPHLDMWNEFFHVMLNIPDCHHLPSLDLLRQKLKKVFQQHYTNKIRALRNRLIVLLLECKRSRK
phosphorylation of an exogenous substrate (33P-ATP kinase reaction of immunopurified FLAG-BUB3/BUB1, SDS-PAGE, autoradiography) [2]: only PHAS-I demonstrated clear huBUB1-dependent activity as a kinase substrate

From US20020123042
